From US20240239860

Molecular target: T1, thio GLP-1 (GLP-1 7-36 with a thioamide at the Ala8-Glu9 scissile bond)
T1 chain: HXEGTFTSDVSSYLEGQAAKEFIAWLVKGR

B1: dipeptidyl peptidase 4 (DPP-4) (protein)
chain: SRKTYTLTDYLKNTYRLKLYSLRWISDHEYLYKQENNILVFNAEYGNSSVFLENSTFDEFGHSINDYSISPDGQFILLEYNYVKQWRHSYTASYDIYDLNKRQLITEERIPNNTQWVTWSPVGHKLAYVWNNDIYVKIEPNLPSYRITWTGKEDIIYNGITDWVYEEEVFSAYSALWWSPNGTFLAYAQFNDTEVPLIEYSFYSDESLQYPKTVRVPYPKAGAVNPTVKFFVVNTDSLSSVTNATSIQITAPASMLIGDHYLCDVTWATQERISLQWLRRIQNYSVMDICDYDESSGRWNCLVARQHIEMSTTGWVGRFRPSEPHFTLDGNSFYKIISNEEGYRHICYFQIDKKDCTFITKGTWEVIGIEALTSDYLYYISNEYKGMPGGRNLYKIQLSDYTKVTCLSCELNPERCQYYSVSFSKEAKYYQLRCSGPGLPLYTLHSSVNDKGLRVLEDNSALDKMLQNVQMPSKKLDFIILNETKFWYQMILPPHFDKSKKYPLLLDVYAGPCSQKADTVFRLNWATYLASTENIIVASFDGRGSGYQGDKIMHAINRRLGTFEVEDQIEAARQFSKMGFVDNKRIAIWGWSYGGYVTSMVLGSGSGVFKCGIAVAPVSRWEYYDSVYTERYMGLPTPEDNLDHYRNSTVMSRAENFKQVEYLLIHGTADDNVHFQQSAQISKALVDVGVDFQAMWYTDEDHGIASSTAHQHIYTHMSHFIKQCFSLP
cleavage of Gly-Pro-pNA substrate by DPP-4: did not inhibit cleavage of Gly-Pro-pNA substrate at 100 µM
